Source: US20250313631A1
Values belong to the substance of their own block, whether it stands above or below them.

Legend:
[1] = target: recombinant human VISTA (His-tagged) (human) (UniProt Q9H7M9); assay: ELISA, plate coated with human VISTA
[2] = target: recombinant mouse VISTA (His-tagged) (mouse) (UniProt Q9D659); assay: ELISA, plate coated with mouse VISTA; unit nM from the legend paragraph 698
[3] = target: recombinant rat VISTA (His-tagged) (rat); assay: ELISA, plate coated with rat VISTA
[4] = target: recombinant mouse VISTA (His-tagged) (mouse) (UniProt Q9D659); assay: ELISA, plate coated with mouse VISTA; unit nM from the legend paragraph 699
[5] = target: recombinant human VISTA (His-tagged) (human) (UniProt Q9H7M9); assay: ELISA, plate coated with human VISTA; unit nM from the legend paragraph 698
[6] = target: recombinant human VISTA (His-tagged) (human) (UniProt Q9H7M9); assay: ELISA, plate coated with human VISTA; unit nM from the legend paragraph 697
[7] = target: recombinant cynomolgus macaque VISTA (His-tagged) (cynomolgus macaque); assay: ELISA, plate coated with cyno VISTA
[8] = target: recombinant mouse VISTA (His-tagged) (mouse) (UniProt Q9D659); assay: ELISA, plate coated with mouse VISTA; unit nM from the legend paragraph 697
[9] = target: recombinant mouse VISTA (His-tagged) (mouse) (UniProt Q9D659); assay: ELISA, plate coated with mouse VISTA
[10] = target: recombinant human VISTA (His-tagged) (human) (UniProt Q9H7M9); assay: ELISA, plate coated with human VISTA; unit nM from the legend paragraph 699
[11] = target: human VISTA expressed on cells (human) (UniProt Q9H7M9); assay: flow cytometry, FITC-A; HEK293 VISTA O/E cells (unstained cells: MFI 0.12)
[12] = target: human FcγRIII (CD16a) (human) (UniProt P08637); assay: ELISA, plate coated with human CD16a (FcγRIII), detection with HRP anti-human Fc antibody
Sequence of human FcγRIII (CD16a) (human) (P08637 17-208 limits assumed): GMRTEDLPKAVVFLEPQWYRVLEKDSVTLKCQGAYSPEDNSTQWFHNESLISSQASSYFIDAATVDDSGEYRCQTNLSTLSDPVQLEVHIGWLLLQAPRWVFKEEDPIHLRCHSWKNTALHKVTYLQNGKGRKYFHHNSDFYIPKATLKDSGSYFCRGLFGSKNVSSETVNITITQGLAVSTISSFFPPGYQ

Fc-tagged VSIG-3 = Fc-tagged VSIG-3 (UniProt Q5DX21); assay: BLI, 100 nM Fc-tagged VSIG-3 on anti-human Fc biosensor, VISTA as analyte from 3000 nM

Sequence of recombinant mouse VISTA (His-tagged) (mouse) (Q9D659 33-191 limits assumed): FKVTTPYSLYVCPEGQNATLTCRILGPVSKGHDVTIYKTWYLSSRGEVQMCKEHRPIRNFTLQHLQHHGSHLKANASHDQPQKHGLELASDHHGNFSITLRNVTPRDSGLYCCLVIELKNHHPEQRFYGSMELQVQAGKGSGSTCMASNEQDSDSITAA

EC50 [1]: > 33 nM
EC50 [2]: > 200 nM
EC50 [3]: > 33 nM
EC50 [4]: > 200 nM
EC50 [5]: > 200 nM
EC50 [6]: 152 nM
EC50 [7]: > 33 nM
EC50 [8]: 77 nM
EC50 [9]: > 33 nM
EC50 [10]: 98.5 nM
Substance: Human isotype (antibody)

MFI [11]: 0.06
Substance: Isotype (antibody)

EC50 (read off the curve) [12]: 1 nM
Substance: hIgG1 Isotype Control (antibody)

Kd (Fc-tagged VSIG-3): 5280 nM
Substance: recombinant human VISTA (His-tagged) (from UniProt Q9H7M9 33-194) (receptor)
